According to patent US20180305450A1 (AstraZeneca / MedImmune, published 2018):
Residue numbers refer to the chain shown, from its start.

What was measured:
[1] = molecular target: T1, recombinant biotinylated human PAR2 extracellular domain (residues 1-75), N-terminal AviTag, C-terminal Flag … (human, UniProt P55085 26-75, biotin on the AviTag (enzymatic biotinylation)); test: HTRF competition with Par0067 IgG, pH 7.4, scFv
T1 construct: also called Bio-human-PAR2 ECD; human PAR2 ECD; not shown: N-terminal AviTag (Avidity LLC); C-terminal Flag and poly Histidine tags
T1 sequence (P55085 26-75): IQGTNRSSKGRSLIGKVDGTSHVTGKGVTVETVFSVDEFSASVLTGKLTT
Protocol: (§1) 5 μl/well of the appropriate pH 4.44 nM Par0067 IgG solution was added to all wells of the relevant assay plate (pH 7.4 and pH 6.0).
(§2) Test scFv Preparation/Addition: [0172] a) For parallel single point HTS of crude un-purified bacterial lysate scFv samples at both pH 7.4 and pH 6.0 samples were first pre-diluted to 40% of their neat concentration using either pH 7.4 or pH 6.0 assay buffer as appropriate. Subsequently 5 μl of 40% pre-diluted sample was then transferred into the appropriate assay (pH 7.4 or pH 6.0) in order to give a final assay sample concentration of 10.0% (in the 20 μl final assay volume). The parent Par0067 scFv was included in all HTS experiments as a control as were specific pH dependent antibodies as those became available (for benchmarking). […] Duplicate 11 point 1:3 serial dilutions then were prepared on 384 well polypropylene Greiner plates in each of the two assay buffers (pH 7.4 & 6.0). 5 μl per well of each serial dilution was transferred from the relevant pH scFv dilution plate to the corresponding assay plate (pH 7.4 and pH 6.0). 5 μl of the appropriate pH assay buffer was added to the total and non-specific wells. The parent Par0067 purified scFv was included in all multipoint dose response IC₅₀ experiments as a control as were specific pH dependent purified scFv as those became available (for benchmarking).
(§3) For multipoint dose response curves % Specific Binding values were plotted versus test purified antibody concentration (scFv or IgG). IC₅₀ values were determined via a sigmoidal dose response inhibition variable slope curve fit (4 parameter logistic equation) using Graphpad Prism Software.

[2] = molecular target: T1, recombinant biotinylated human PAR2 …; test: HTRF competition with Par0067 IgG, pH 6.0, scFv
Protocol: as §1, §2, §3

[3] = molecular target: T1, recombinant biotinylated human PAR2 …; test: HTRF competition with Par0067 IgG, scFv
Protocol: as §1, §2, §3

[4] = molecular target: T2, recombinant biotinylated rat PAR2 extracellular residues 1-75, N-terminal AviTag, C-terminal Flag and poly … (rat, UniProt Q63645 26-75, not fully specified; biotin on the AviTag (enzymatic biotinylation)); test: Biacore SPR 25 C, pH 6.0
T2 construct: range 1-75; not shown: N-terminal AviTag (Avidity LLC); C-terminal Flag and poly Histidine tags
T2 chain (looked up): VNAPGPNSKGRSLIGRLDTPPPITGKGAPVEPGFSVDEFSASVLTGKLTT
Protocol: (§4) The experiments were carried out using recombinant human, rat and cynomolgus PAR2 with an N-terminal Avi tag and C-terminal Flag-His tags.
(§5) Streptavidin was covalently immobilised to a C1 chip surface using standard amine coupling techniques at a concentration of 4 μg/ml in 10 mM Sodium acetate pH 4.5. A final streptavidin surface of approximately 30-100 RUs was achieved. Recombinant biotinylated PAR2 species (produced in-house) were titrated onto the streptavidin chip surface at 4 μg/ml in HBS-EP+ buffer to enable Fab binding at saturation (Rₘₐₓ). This low level of analyte binding ensured minimal mass transport effects.
(§6) The anti-PAR2 Fabs were serially diluted (0.39 nM-25 nM) in HBS-EP+ buffer pH 7.4 or MES-BS-EP+ pH 6.0 buffer or in MES-BS-EP+ pH 5.6 buffer and flowed over the chip at 50 μl/min, with 3 minutes association and up to 30 minutes dissociation. Multiple buffer-only injections were made under the same conditions to allow for double reference subtraction of the final sensorgram sets, which were analysed using the BiaEval software (version 2.0.1). The chip surface was fully regenerated with pulses of 4 M MgCl₂.

[5] = molecular target: T1, recombinant biotinylated human PAR2 …; test: Biacore SPR 25 C, pH 6.0
Protocol: as §4, §5, §6

[6] = molecular target: T2, recombinant biotinylated rat PAR2 …; test: Biacore SPR 25 C, pH 7.4
Protocol: as §4, §5, §6

[7] = molecular target: T1, recombinant biotinylated human PAR2 …; test: Biacore SPR 25 C, pH 7.4
Protocol: as §4, §5, §6

B1: PaB670091 scFv (scFv, V domains shown)
VH: EVQLLESGGGLVQPGGSLRLSCAASGFTFSSYAMNWVRQAPGKGLEWVSTISHSGHLIHHHHSVKGRFTISRDNSKNTLYLQMNSLRAEDTAVYYCARINNDPMDVWGQGTLVTVSS
VL: SIELTQPPSVSVSPGQTASITCSGDNLGKKYVQWYQQKPGQSPVLVIYDDSNRPSGIPERFSGSNSGNTATLTISGTQAMDEADYYCQTWDGNPTTGETNVFGGGTKLTVL
notes: purified scFv; also called ZZ1ODR-G02
IC50 [1]: 25.2 nM | IC50 [2]: 98.9 nM | Fold IC50 (pH 6.0 v pH 7.4) [3]: 3.9 fold | Fold IC50 pH 7.4 (Variant v Par0067) [3]: 7.6 fold

B2: Par0067 scFv (scFv, V domains shown)
VH: B1 VH with H53Y, H56S, H59S, H60Y, H61A, H62D
VL: B1 VL
notes: purified scFv, parent clone; also called ZZ15D2-D02
IC50 [1]: 3.3 nM | IC50 [2]: 3.6 nM | Fold IC50 (pH 6.0 v pH 7.4) [3]: 1.1 fold | Fold IC50 pH 7.4 (Variant v Par0067) [3]: 1 fold

B3: PaB670102 scFv (scFv, V domains shown)
VH: B1 VH with H53Y, H56S, H59S, H60Y, H61A, H62D, N101H, V106H
VL: B1 VL
notes: purified scFv; also called ZZ1PXS-F08
IC50 [1]: 5.3 nM | IC50 [2]: 13.7 nM | Fold IC50 (pH 6.0 v pH 7.4) [3]: 2.6 fold | Fold IC50 pH 7.4 (Variant v Par0067) [3]: 1.6 fold

B4: PaB670092 scFv (scFv, V domains shown)
VH: B1 VH with H53Y, S54H, H56S, L57H, H59S, H60Y, H62D, V64H, K65H
VL: B1 VL
notes: purified scFv; also called ZZ1ODR-G11
IC50 [1]: 41.1 nM | IC50 [2]: 194 nM | Fold IC50 (pH 6.0 v pH 7.4) [3]: 4.7 fold | Fold IC50 pH 7.4 (Variant v Par0067) [3]: 12.5 fold

B5: PaB670101 scFv (scFv, V domains shown)
VH: EVQLLESGGGLVQPGGSLRLSCAASGFTFSSYAMNWVRQAPGKGLEWVSTISYSGSLISYADSVKGRFTISRDNSKNTLYLQMNSLRAEDTAVYYCARIHHHPHDHWGQGTLVTVSS
VL: B1 VL
notes: purified scFv; also called ZZ1ODO-H01
IC50 [1]: 147 nM | IC50 [2]: 496 nM | Fold IC50 (pH 6.0 v pH 7.4) [3]: 3.4 fold | Fold IC50 pH 7.4 (Variant v Par0067) [3]: 44.5 fold

B6: PaB670093 scFv (scFv, V domains shown)
VH: B1 VH with H53Y, S54H, G55H, H59S, H61A, H62D
VL: B1 VL
notes: purified scFv; also called ZZ1ODR-H04
IC50 [1]: 18.6 nM | IC50 [2]: 58.7 nM | Fold IC50 (pH 6.0 v pH 7.4) [3]: 3.2 fold | Fold IC50 pH 7.4 (Variant v Par0067) [3]: 5.6 fold

B7: PaB670105 scFv (scFv, V domains shown)
VH: B5 VH with H100N, H101N, H102D, H104M, H106V
VL: B1 VL with T89H, D91H, T95H, T99H, V101H
notes: purified scFv; also called ZZ1RD0-D01
IC50 [1]: 74.4 nM | IC50 [2]: 496 nM | Fold IC50 (pH 6.0 v pH 7.4) [3]: 6.7 fold | Fold IC50 pH 7.4 (Variant v Par0067) [3]: 22.5 fold

B8: PaB670094 scFv (scFv, V domains shown)
VH: B1 VH with H53Y, S54H, L57H, H59S, H61A, H62D, S63H, V64H
VL: B1 VL
notes: purified scFv; also called ZZ1ODS-B08
IC50 [1]: 72.5 nM | IC50 [2]: 237 nM | Fold IC50 (pH 6.0 v pH 7.4) [3]: 3.3 fold | Fold IC50 pH 7.4 (Variant v Par0067) [3]: 22 fold

B9: PaB670103 Fab (Fab, V domains shown)
VH: B5 VH with H100N, H101N, H102D, H104M, H106V
VL: B1 VL with Q88H, N93H, P94H, V101H
notes: Fab; also called ZZ1RCX-C09
Kd [4]: 10.2 nM | koff [4]: 0.00542 s⁻¹ | kon [4]: 531000 M⁻¹ s⁻¹ | Kd [5]: 1.8 nM | koff [5]: 0.000607 s⁻¹ | kon [5]: 336000 M⁻¹ s⁻¹ | Kd [6]: 0.184 nM | koff [6]: 0.000558 s⁻¹ | kon [6]: 3.04e+06 M⁻¹ s⁻¹ | Kd [7]: 0.0325 nM | koff [7]: 0.000111 s⁻¹ | kon [7]: 3.52e+06 M⁻¹ s⁻¹

B10: PaB670095 scFv (scFv, V domains shown)
VH: B1 VH with H53Y, S54H, L57H, H59S, H60Y, H61A, H62D, V64H, K65H, G66H
VL: B1 VL
notes: purified scFv; also called ZZ1ODS-H05
IC50 [1]: 20 nM | IC50 [2]: 113 nM | Fold IC50 (pH 6.0 v pH 7.4) [3]: 5.7 fold | Fold IC50 pH 7.4 (Variant v Par0067) [3]: 6.1 fold

B11: PaB670107 scFv (scFv, V domains shown)
VH: B5 VH with H100N, H101N, H102D, H104M, H106V
VL: B1 VL with Q88H, T89H, D91H, G92H, T96H, G97H
notes: purified scFv; also called ZZ1RD3-D09
IC50 [1]: 42.7 nM | IC50 [2]: 464 nM | Fold IC50 (pH 6.0 v pH 7.4) [3]: 10.9 fold | Fold IC50 pH 7.4 (Variant v Par0067) [3]: 12.9 fold

B12: PaB670104 scFv (scFv, V domains shown)
VH: B5 VH with H100N, H101N, H102D, H104M, H106V
VL: B1 VL with T89H, N93H, P94H, T95H
notes: purified scFv
IC50 [1]: 21.7 nM | IC50 [2]: 202 nM | Fold IC50 (pH 6.0 v pH 7.4) [3]: 9.3 fold | Fold IC50 pH 7.4 (Variant v Par0067) [3]: 6.6 fold

B13: PaB670108 scFv (scFv, V domains shown)
VH: B5 VH with H100N, H101N, H102D, H104M, H106V
VL: B1 VL with T89H, D91H, N93H, P94H, T95H
notes: purified scFv; also called ZZ1RD3-H03
IC50 [1]: 29.1 nM | IC50 [2]: 149 nM | Fold IC50 (pH 6.0 v pH 7.4) [3]: 5.1 fold | Fold IC50 pH 7.4 (Variant v Par0067) [3]: 8.8 fold

B14: PaB670106 scFv (scFv, V domains shown)
VH: B5 VH with H100N, H101N, H102D, H104M, H106V
VL: B1 VL with Q88H, G92H, T95H, T96H, G97H, E98H, V101H
notes: purified scFv; also called ZZ1RD0-G02
IC50 [1]: 313 nM | IC50 [2]: 1190 nM | Fold IC50 (pH 6.0 v pH 7.4) [3]: 3.8 fold | Fold IC50 pH 7.4 (Variant v Par0067) [3]: 94.8 fold

B15: PaB670100 scFv (scFv, V domains shown)
VH: B1 VH with H53Y, S54H, L57H, H59S, H61A, S63H, K65H
VL: B1 VL
notes: purified scFv
IC50 [1]: 20.3 nM | IC50 [2]: 69 nM | Fold IC50 (pH 6.0 v pH 7.4) [3]: 3.4 fold | Fold IC50 pH 7.4 (Variant v Par0067) [3]: 6.2 fold

B16: PaB670103 scFv (scFv, V domains shown)
VH: B5 VH with H100N, H101N, H102D, H104M, H106V
VL: B1 VL with Q88H, N93H, P94H, V101H
notes: purified scFv; also called ZZ1RCX-C09
IC50 [1]: 27.9 nM | IC50 [2]: 204 nM | Fold IC50 (pH 6.0 v pH 7.4) [3]: 7.3 fold | Fold IC50 pH 7.4 (Variant v Par0067) [3]: 8.5 fold

B17: PaB670099 scFv (scFv, V domains shown)
VH: B1 VH with H53Y, S54H, H56S, L57H, H59S, H60Y, H62D, K65H, G66H
VL: B1 VL
notes: purified scFv
IC50 [1]: 12.9 nM | IC50 [2]: 62.4 nM | Fold IC50 (pH 6.0 v pH 7.4) [3]: 4.8 fold | Fold IC50 pH 7.4 (Variant v Par0067) [3]: 3.9 fold

B18: PaB670098 scFv (scFv, V domains shown)
VH: B1 VH with I58H, H60Y, H61A, H62D, V64H, G66H
VL: B1 VL
notes: purified scFv; also called ZZ1ODT-G01
IC50 [1]: 65.9 nM | IC50 [2]: 210 nM | Fold IC50 (pH 6.0 v pH 7.4) [3]: 3.2 fold | Fold IC50 pH 7.4 (Variant v Par0067) [3]: 20 fold

B19: PaB670097 scFv (scFv, V domains shown)
VH: B1 VH with S52H, I58H, H59S, H60Y, S63H
VL: B1 VL
notes: purified scFv; also called ZZ1ODT-E11
IC50 [1]: 21.8 nM | IC50 [2]: 77.9 nM | Fold IC50 (pH 6.0 v pH 7.4) [3]: 3.6 fold | Fold IC50 pH 7.4 (Variant v Par0067) [3]: 6.6 fold
